This is an account of results in patent publication US20100203046A1.

The target in test [1] is human FcγRIII (CD16), CD16a (F158), on CD16-transfected Jurkat cells (human) (UniProt P08637). The test is described as follows: summary of Table 5 assays.
Test [2] shares this target. Nature of the test: CD16 bridging assay, purified.

Sequence of human FcγRIII (CD16), CD16a (F158), on CD16-transfected Jurkat cells (human) (P08637 17-254): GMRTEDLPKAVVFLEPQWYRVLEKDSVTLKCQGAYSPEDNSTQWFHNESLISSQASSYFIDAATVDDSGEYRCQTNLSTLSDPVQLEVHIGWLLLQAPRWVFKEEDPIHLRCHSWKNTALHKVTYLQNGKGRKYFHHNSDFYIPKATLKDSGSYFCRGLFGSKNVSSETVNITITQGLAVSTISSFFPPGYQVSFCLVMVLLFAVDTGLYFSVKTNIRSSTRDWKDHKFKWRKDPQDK

As for chCB6-huIgG1 Y296S (antibody), the fold decrease in binding vs WT in test [1] is more than 10 fold; in test [2] it was 20 fold.
